According to patent US20250161359A1:

Tests used:
[1] = molecular target: PR3_1_30: PR3_1_(WT) CD33SP MS CD28TM CAAR (human); assay: cell-based or functional assay
[2] = molecular target: PR3_10_56: PR3_10 (H44A) CD33SP SS CD28TM CAAR (human); assay: cell-based or functional assay
Chain of PR3_10_56: PR3_10 (H44A) CD33SP SS CD28TM CAAR (human) (chain, as listed by the source H44A H44A limits assumed): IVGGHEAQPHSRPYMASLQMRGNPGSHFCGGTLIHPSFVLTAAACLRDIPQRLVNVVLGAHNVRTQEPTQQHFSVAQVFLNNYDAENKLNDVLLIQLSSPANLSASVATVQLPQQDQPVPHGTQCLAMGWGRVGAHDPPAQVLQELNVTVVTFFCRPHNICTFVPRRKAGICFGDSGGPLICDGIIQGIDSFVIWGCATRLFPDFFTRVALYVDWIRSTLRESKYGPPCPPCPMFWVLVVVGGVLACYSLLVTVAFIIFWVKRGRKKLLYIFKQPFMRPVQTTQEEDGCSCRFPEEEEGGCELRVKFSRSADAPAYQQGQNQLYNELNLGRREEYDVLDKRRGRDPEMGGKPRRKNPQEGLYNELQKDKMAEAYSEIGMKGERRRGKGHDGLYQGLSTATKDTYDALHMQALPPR

Chain of PR3_1_30: PR3_1_(WT) CD33SP MS CD28TM CAAR (human) (chain, as listed by the source limits assumed): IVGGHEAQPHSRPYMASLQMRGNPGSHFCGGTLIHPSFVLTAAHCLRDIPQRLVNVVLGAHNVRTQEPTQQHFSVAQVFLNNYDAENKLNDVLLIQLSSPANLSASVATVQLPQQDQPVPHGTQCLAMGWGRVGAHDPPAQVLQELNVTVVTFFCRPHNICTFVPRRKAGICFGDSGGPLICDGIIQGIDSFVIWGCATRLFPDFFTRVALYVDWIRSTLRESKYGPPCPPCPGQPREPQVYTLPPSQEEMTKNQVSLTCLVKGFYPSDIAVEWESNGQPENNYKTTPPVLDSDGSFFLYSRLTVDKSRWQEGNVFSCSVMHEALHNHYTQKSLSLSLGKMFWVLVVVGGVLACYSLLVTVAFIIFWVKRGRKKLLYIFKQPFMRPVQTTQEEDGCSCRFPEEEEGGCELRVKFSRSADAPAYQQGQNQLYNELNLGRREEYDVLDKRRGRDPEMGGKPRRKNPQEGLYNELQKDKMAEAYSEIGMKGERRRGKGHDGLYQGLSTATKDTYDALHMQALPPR

Substance: anti-PR3 antibody, EMD Millipore, clone MCPR3-3, catalog #MABF973
- CAAR killing efficiency against the lowest density IgG+-CHO-S target (MCPR3-3 #4 (L)) [1]: 65%
- CAAR killing efficiency against the lowest density IgG+-CHO-S target (MCPR3-3 #4 (L)) [2]: 65%
